{
  "source": "paper PMC8883494",
  "about": "“Conformational trapping of an ABC transporter in polymer lipid nanoparticles” (Biochemical Journal, 2021)",
  "proteins": {"B1": {"name": "Staphylococcus aureus ABC transporter Sav1866 in styrene-maleic acid lipid particles (natural protein)", "chain": "MIKRYLQFVKPYKYRIFATIIVGIIKFGIPMLIPLLIKYAIDGVINNHALTTDEKVHHLTIAIGIALFIFVIVRPPIEFIRQYLAQWTSNKILYDIRKKLYNHLQALSARFYANNQVGQVISRVINDVEQTKDFILTGLMNIWLDCITIIIALSIMFFLDVKLTLAALFIFPFYILTVYVFFGRLRKLTRERSQALAEVQGFLHERVQGISVVKSFAIEDNEAKNFDKKNTNFLTRALKHTRWNAYSFAAINTVTDIGPIIVIGVGAYLAISGSITVGTLAAFVGYLELLFGPLRRLVASFTTLTQSFASMDRVFQLIDEDYDIKNGVGAQPIEIKQGRIDIDHVSFQYNDNEAPILKDINLSIEKGETVAFVGMSGGGKSTLINLIPRFYDVTSGQILIDGHNIKDFLTGSLRNQIGLVQQDNILFSDTVKENILLGRPTATDEEVVEAAKMANAHDFIMNLPQGYDTEVGERGVKLSGGQKQRLSIARIFLNNPPILILDEATSALDLESESIIQEALDVLSKDRTTLIVAHRLSTITHADKIVVIENGHIVETGTHRELIAKQGAYEHLYSIQNL", "notes": "Sav1866, ABC transporter (half-transporter, homodimer) of Staphylococcus aureus; expressed from pet-19b:sav1866; M from chemical composition 64 863 Da; the undigested band at 65 kDa is called full-length Sav1866; Embedded in a SMALP nanoparticle with E. coli lipids; The DNA construct was a gift; its exact limits and linker are not described; also called Sav1866-SMALPs; Sav1866-10His; source: E. …"}},
  "target": "the molecule itself",
  "experiment": "SAXS; Sav1866-SMALPs from the 12 ml SEC fraction, undiluted sample, 20 mM Tris pH 8, 150 mM NaCl; DAMMIF models with P1 and P2 symmetry fitted with the crystal structure 2HYD",
  "data": [
    {"protein": "B1", "values": [
      {"measurement": "stoichiometry N", "result": 2}
    ]}
  ]
}
